From patent US11034759B2, “Humanized M-CSF specific monoclonal antibodies, kits, and uses thereof” (NOVARTIS VACCINES AND DIAGNOSTICS, INC., priority 2004, dated 2021)

T1: MCSF (Homo sapiens, UniProt P09603)
T1 sequence (P09603 33-255 limits assumed): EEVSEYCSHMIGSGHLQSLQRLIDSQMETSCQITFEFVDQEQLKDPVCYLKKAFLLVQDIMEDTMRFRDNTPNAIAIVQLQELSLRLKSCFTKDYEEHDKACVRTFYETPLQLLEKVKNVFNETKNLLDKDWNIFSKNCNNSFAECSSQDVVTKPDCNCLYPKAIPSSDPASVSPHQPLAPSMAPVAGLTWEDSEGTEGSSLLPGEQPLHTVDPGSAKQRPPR

B1: heRX1-10.G4: Human Engineered RX1 construct 10 with IgG4 constant region; named only in Table 12 (antibody)
heavy: QVQLQESGPGLVKPSQTLSLTCTVSDYSITSDYAWNWIRQFPGKGLEWMGYISYSGSTSYNPSLKSRITISRDTSKNQFSLQLNSVTAADTAVYYCASFDYAHAMDYWGQGTTVTVSS
light: DIVLTQSPAFLSVTPGEKVTFTCQASQSIGTSIHWYQQKTDQAPKLLIKYASESISGIPSRFSGSGSGTDFTLTISSVEAEDAADYYCQQINSWPTTFGGGTKLEIKRT
modifications: left off: a dimerising Fc or GST
B2: 5H4: MCSF-specific murine antibody 5H4 (SEQ ID NOs: 10 and 11) (antibody, listed as Mus musculus)
heavy: EIQLQQSGPELVKTGTSVKISCKASGYSFTGYFMHWVKQSHGKSLEWIGYISCYNGDTNYNQNFKGKATFTVDTSSSTAYMQFNSLTSEDSAVYYCAREGGNYPAYWGQGTLVTVSAAKTTPPSVYPLAPGSAAQTNSMVTLGCLVKGYFPEPVTVTWNSGSLSSGVHTFPAVLQSDLYTLSSSVTVPSSTWPSETVTCNVAHPASSTKVDKKIVPRDCGCKPCICTVPEVSSVFIFPPKPKDVLTITLTPKVTCVVVDISKDDPEVQFSWFVDDVEVHTAQTQPREEQFNSTFRSVSELPIMHQDWLNGKEFKCRVNSAAFPAPIEKTISKTKGRPKAPQVYTIPPPKEQMAKDKVSLTCMITDFFPEDITVEWQWNGQPAENYKNTQPIMDTDGSYFVYSKLNVQKSNWEAGNTFTCSVLHEGLHNHHTEKSLSHSPGK
light: DIVMTQSHKFMSTSVGDRVTITCKASQNVGTAVTWYQQKPGQSPKLLIYWTSTRHAGVPDRFTGSGSGTDFTLTISDVQSEDLADYFCQQYSSYPLTFGAGTKLELKRADAAPTVSIFPPSSEQLTSGGASVVCFLNNFYPKDINVKWKIDGSERQNGVLNSWTDQDSKDSTYSMSSTLTLTKDEYERHNSYTCEATHKTSTSPIVKSFNRNEC

What was measured:
MCSF [1] = target: T1, MCSF; test: M-NFS-60 proliferation assay, neutralizing activity (Example 14); assay type: cell-based; details: Table 12; relative IC50, M-NFS-60 proliferation, 10 ng/ml M-CSF, 72 hours
From the text: To test the neutralizing activity of M-CSF antibodies, a proliferation assay of M-NFS-60 cell line was used (American Type Culture Collection, Accession No. CRL-1838, available from ATCC in Rockville, Md., USA, derived from a myologenous leukemia induced with the Cas-Br.MuLV wild mouse ecotropic retrovirus. The cell line responds to both interleukin 3 and M-CSF and contains a truncated c-myb proto-oncogene caused by the integration of a retrovirus). Proliferation of M-NFS-60 requires active M-CSF in a dose-dependent fashion. In the assay, M-NFS-60 cells were washed and plated in RPIM1640 medium with 10% FBS and 1% Pen/Strep. […] Cells were incubated at 37° C. under 5% CO2 for 72 hours before cell numbers were quantified by CellTiter Glo assay (Promega). […] The IC50 of each antibody was analyzed by curve fit.
The assay was repeated using human MCSF in serum, MDA231 conditioned medium (which contains M-CSF), cynomologous monkey MCSF in serum, and cynomologous monkey recombinant MCSF. The results are presented in FIGS. 25 (recombinant MCSF), 26 (human MCSF in serum) and 27 (MDA231 conditioned medium) as the fluorescent reading from CellTiter Glo assay, which is linear with cell number. […]

MCSF [2] = target: T1, MCSF; test: Recognition of M-CSF under reducing and non-reducing conditions; assay type: binding; details: 0.1 μg M-CSF
Experimental: Accordingly, the anti-M-CSF antibodies were tested against 0.1 μg M-CSF under reducing as well as non-reducing conditions.

MCSF [3] = target: T1, MCSF; test: Biacore analysis, M-CSF immobilized, intact Mab or Fab flowed over (Example 11); assay type: binding; details: Table 9, 25° C., 1:1 interaction model
Experimental: Specifically, M-CSF was immobilized onto CMS biosensor chip via amine coupling. 0.05 μg/ml M-CSF in 10 mM Na Acetate pH 4.0 was injected at 1 μl/min for 5 minutes to achieve RL=6-12 RU. Test antibody (or Fab fragment) were flowed over the modified biosensor surface at varying concentrations. Test antibodies were diluted in 0.01 M HEPES pH 7.4, 0.15 M NaCL, 3 mM EDTA, 0.005% Surfactant P20 (HBS-EP) and all experiments were done at 25° C. Kinetic and affinity constants were determined using Biaevaluation software (Biacore) with a 1:1 interaction model/global fit.

MCSF [4] = target: T1, MCSF; test: Biacore analysis, antibody captured on anti-mouse Fc chip, MCSF flowed over; assay type: binding; details: Table 8, 25° C., 1:1 interaction model
Experimental: Binding properties of the aforementioned antibodies were analyzed using Biacore analyses. […] The aforementioned antibodies were then captured on the anti-mouse Fc/CM5 biosensor chip at 1.5 μg/ml for 3 min at 2 μl/min. MCSF was flowed over the modified biosensor surface at varying concentrations (Rmax ˜15). Test antibodies and antigen were diluted in 0.01 M HEPES pH 7.4, 0.15 M NaCL, 3 mM EDTA, 0.005% Surfactant P20 (HBS-EP). All experiments were performed at 25° C. Kinetic and affinity constants were determined using Biaevaluation software (Biacore) with a 1:1 interaction model/global fit.

Molecule | IC50 Fold Loss (MCSF [1]) | Form of M-CSF recognized (MCSF [2]) | Ka (MCSF [3]) [M⁻¹ s⁻¹] | Kd (MCSF [3]) [s⁻¹] | Ka (MCSF [4]) [M⁻¹ s⁻¹] | Kd (MCSF [4]) [s⁻¹]
B1 | No loss | – | – | – | – | –
B2 | – | Only the non-reduced form of M-CSF was recognized | 127000 | 0.00126 | 594000 | 0.00177
